Experimental findings from the supplement of paper PMC12455559 are described below.

Data set [1] can be described thus: purified protein yield per well (BCA); higher = higher soluble expression. In outline: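 The measured quantity is purified protein yield per well, determined with the Pierce Rapid Gold BCA kit. Anything below 25 ug (0.1 mg/mL) lies under the detection threshold. Enzymes were expressed in E. coli C41(DE3) in 2 mL autoinduction cultures with 100 µg/mL kanamycin at 37 °C for 2 h, then 18 °C for 40 h, and purified on an OT-2 robot using Ni-charged magnetic beads and SUMO protease release.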

Data set [2] is described as follows: melting temperature (DSF); higher = more thermostable. In outline:
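Values are melting temperatures from differential scanning fluorimetry. Candidate enzymes were expressed in E. coli C41(DE3), purified on nickel beads and freed by SUMO protease cleavage. In sealed PCR plates on a Bio-Rad CFX96, 45 μL enzyme (0 to 0.3 mg/mL) was combined with 5 μL 5X Sypro Orange. Fluorescence was recorded from 25 °C for 250 cycles, rising 0.3 °C per cycle at a ramp of 0.3 °C/s.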

Data set [3] is described as follows: PET hydrolysis, aromatic products released after 48 h (umol product/mg enzyme); higher = more PET depolymerization activity. In outline: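 Amorphous PET film or crystalline PET powder (3.5 mg) in 450 μL of 50 mM NaCitrate (pH 4.5, 5.5), 50 mM NaPhosphate (pH 6.5, 7.5) or glycine (pH 8.5) received 5 μg (50 μL) of candidate enzyme. That enzyme was purified on nickel beads and freed of its tag by SUMO cleavage. After 48 h at 40 or 60 °C in sealed plates without shaking, absorbance of the supernatant at 260 and 280 nm was read against buffer blanks. PET hydrolysis activity is this aromatic product expressed per mg enzyme.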

Where [4] appears, read: substrate: aFilm, 40 °C, pH 4.5.
Setting [5] is: substrate: aFilm, 40 °C, pH 5.5.
Where [6] appears, read: substrate: aFilm, 40 °C, pH 6.5.
Where [7] appears, read: substrate: aFilm, 40 °C, pH 7.5.
Setting [8] is: substrate: aFilm, 60 °C, pH 4.5.
The mark [9] stands for this setting: substrate: aFilm, 60 °C, pH 5.5.
Setting [10] is: substrate: aFilm, 60 °C, pH 6.5.
Where [11] appears, read: substrate: aFilm, 60 °C, pH 7.5.
Setting [12] is: substrate: cryPow, 40 °C, pH 4.5.
Where [13] appears, read: substrate: cryPow, 40 °C, pH 5.5.
Where [14] appears, read: substrate: cryPow, 40 °C, pH 6.5.
The mark [15] stands for this setting: substrate: cryPow, 40 °C, pH 7.5.
Where [16] appears, read: substrate: cryPow, 60 °C, pH 4.5.
Setting [17] is: substrate: cryPow, 60 °C, pH 5.5.
Where [18] appears, read: substrate: cryPow, 60 °C, pH 6.5.
Where [19] appears, read: substrate: cryPow, 60 °C, pH 7.5.

± gives the standard deviation of the averaged measurements. Some results are limits rather than exact numbers.

With “ADNPYQRGPDPTRTSVTAVNGPFANTSVSVPTGYGFNGGRIYYPTDTSQGTFGAIAISPGYTALFSAELAWMGPWLASHGFVVIGIETNSRNDFDTARGTQLLAALDYLTQQSPVRDRVDPNRLAVAGHSMGGGGALSAATRRPSLKAVVGIAPYSPSSNLANDRVPTMIFAGQADTVVTPSYATGLYNSLPATTESVYVEVAGADHGFMVGRSNPVMVRTMLPFVKMFIDNDTRYSQFLCPLLDSSGVVTYRSTCPLLPSTPTPTDPPTPTDPPTVPPGSANEIVGTQSGRCVDVPNASRTNGTRVQLYGCNKQTNQAWTYTSSKQLQVYGNMCLDAAGTGNGAAVQIYSCHNQTNQQWNVNSNGTISNVQSGRCLDAWSTANGAQIQLYDCHGQTNQQFRLAALAG [ESM069]”, in data set [1], the “purified protein yield per well” value stood at 213 µg. Also, the melting temperature in data set [2] is 63.4 C. For the same sequence, the PET hydrolysis in data set [3] (setting [4]) is less than 3; in data set [3] (setting [5]), 4; in data set [3] (setting [6]) it was less than 3; in data set [3] (setting [7]), less than 3; in data set [3] (setting [8]), less than 3; in data set [3] (setting [9]), less than 3. For the same sequence, the PET hydrolysis in data set [3] (setting [10]) is less than 3; in data set [3] (setting [11]) it was less than 3; in data set [3] (setting [12]), 10.5 ± 2.1; in data set [3] (setting [13]), 29 ± 2.8; in data set [3] (setting [14]), 42; in data set [3] (setting [15]) it was 17 ± 1.4. Also, the PET hydrolysis in data set [3] (setting [16]) was less than 3; in data set [3] (setting [17]) it was 4.5 ± 0.71; in data set [3] (setting [18]), 4; in data set [3] (setting [19]), less than 3.

With “LTPSPTPPPTGGTGGCPADAICRGETPGSYSANGPYGSRSYTLSRIQTPGGATVYYPANAEPPFSGLVFTPPYTGSQFMYRAWGPFFASHGIVMVTMDTRTTLDSVDQRAAQQKQVLDALKAENTRSASPLRGKLDTSRLGAVGWSMGGGATWINSAEYSGLKTAMSLAGHNLSALDINARGSNTRVPTLIMNGALDATYLGGLGQSLGVYNNIPRGIPKVIYEVSSAGHFSWGSPTSAGRSVAQIALAFQKTFLDGDTRWATYIRRPSSGVATWRTANLP [ESM175]”, in data set [1], the “purified protein yield per well” value came out at 285 µg. In data set [2], the melting temperature is 46 C. Moreover, the PET hydrolysis in data set [3] (setting [4]), in data set [3] (setting [5]), in data set [3] (setting [6]), in data set [3] (setting [7]), in data set [3] (setting [8]) and in data set [3] (setting [9]) was less than 3 each time. The PET hydrolysis in data set [3] (setting [10]), in data set [3] (setting [11]), in data set [3] (setting [12]), in data set [3] (setting [13]), in data set [3] (setting [14]) and in data set [3] (setting [15]) was less than 3 in each case. For the same sequence, the PET hydrolysis in data set [3] (setting [16]), in data set [3] (setting [17]), in data set [3] (setting [18]) and in data set [3] (setting [19]) was less than 3 throughout.

In the case of “DQGPPPTIASLSVDGAYAVMTYTDIPDVPEFGDATVYYPVDTAMPIGGVAISPGWTELQRHIEWWGPRLASHGYAVLILDTNDAMADQPEQRAEALIAAVRILRGENDRAGSPLSGRIDTEKMAIMGHSMGGGGVLIAANNYPAEIQAAIPFTPWQPAGDFSQVVAPTLVMAGSADRVASVSDHAWPHYQSIPESTIKVFLEIDGGSHFIADTSRGEDLGTIGRYGIAWLKLYLDGDERYRGFIYGDEAASDSEKFSRYVTSP [TEP021]”, the “purified protein yield per well” value in data set [1] came to 76.5 µg. The same sequence gave a melting temperature in data set [2] of 30.7 C. For the same sequence, the PET hydrolysis in data set [3] (setting [12]), in data set [3] (setting [13]), in data set [3] (setting [14]), in data set [3] (setting [15]), in data set [3] (setting [16]) and in data set [3] (setting [17]) was less than 3 throughout. For the same sequence, the PET hydrolysis in data set [3] (setting [18]) and in data set [3] (setting [19]) was less than 3 in each case.

As for “ADNPYQRGPDPTPASVGASRGTFATAQVSVPAGNGFGGGVIYYPTDTSQGRFGAVAVVPGYTATWAAEGAWMGPWLASFGFVVIGIDTNSRNDWDTARGTQLLAALDYLTQRSSVRDRVDASRAAVMGHSMGGGGAIYAALQRPSLKTTVGLAPFSASQTLNNMRVPTMLLAGQNDGTTTPASIRNYYGQVPSGVEKAYLELTGAGHGFPTSNNPTMMRNVIPWLKIFVDSDTRYTQFLCPLSNTNGIRSYESTCPLVPSPVPTDPPTSAPPTSTPPTTPPPTTPPPTTPAPGGPCAASYRTVNSWSGGFQGEVTVRAGGAPINGWTVRWTLGGGQSISQVWNGTLSTSGSTATVRNAPYNGSLPASGSTTFGFIANGSPSAPTLTCASP [TEP013]”, the “purified protein yield per well” value in data set [1] turned out to be 176 µg. In addition, in data set [2], the melting temperature was 64 C. Further, the PET hydrolysis in data set [3] (setting [4]), in data set [3] (setting [5]), in data set [3] (setting [6]), in data set [3] (setting [7]), in data set [3] (setting [8]) and in data set [3] (setting [9]) was less than 3 throughout. The PET hydrolysis in data set [3] (setting [10]) is less than 3; in data set [3] (setting [11]) it was less than 3; in data set [3] (setting [12]), less than 3; in data set [3] (setting [13]), 5.5 ± 0.71; in data set [3] (setting [14]), 27 ± 1.4; in data set [3] (setting [15]), 53.5 ± 2.1. Moreover, the PET hydrolysis in data set [3] (setting [16]) was less than 3; in data set [3] (setting [17]), less than 3; in data set [3] (setting [18]) it was 6 ± 1.4; in data set [3] (setting [19]) it was 10 ± 1.4.

Turning to “ADNPYQRGPDPTAASIAAVTGPFATASVTVPRGNGFGGGVIYYPTDTSQGTFGGIAISPGLNGTWPGIAWLGPRLASQGFVVFGIETNNLNDSPTSRGTQLLAALDYLTGSSSVRTRVDAGRLAVAGHSMGGGGALDAALRRPSLRATIGNAPHLPSGSLANDRVPTLIYAMQNDTLVPPSRLTSLYNTVPATTERGYLEITGAGHNYIGQPSTILARTMIPWLKIFVDDDARYSQFLCPLTDRSGISQYQSSCPLITTSPTTGPTAQPTTAAPTTTPTTPPVGGPCEATHRTVNSWSGGYQGEVTVRAGSAAINGWTVSWTLGSGQTINQVWGGALTASGTAATVRNETWNGPVAAGASTTFGYIATGNAPTQPLACSAR [ESM060]”, the “purified protein yield per well” value in data set [1] amounted to 279 µg. Moreover, the melting temperature in data set [2] came out at 58.6 C. Also, the PET hydrolysis is less than 3 in data set [3] (setting [4]); less than 3 in data set [3] (setting [5]); 1.5 ± 2.1 in data set [3] (setting [6]); 8 ± 1.4 in data set [3] (setting [7]); less than 3 in data set [3] (setting [8]); less than 3 in data set [3] (setting [9]). Also, the PET hydrolysis in data set [3] (setting [10]) is less than 3; in data set [3] (setting [11]), less than 3; in data set [3] (setting [12]), less than 3; in data set [3] (setting [13]), 11.5 ± 2.1; in data set [3] (setting [14]), 24.5 ± 2.1; in data set [3] (setting [15]), 38 ± 1.4. Also, the PET hydrolysis is less than 3 in data set [3] (setting [16]), less than 3 in data set [3] (setting [17]), 5.5 ± 0.71 in data set [3] (setting [18]) and 12.5 ± 0.71 in data set [3] (setting [19]).
